{
  "source": "paper PMC3822574",
  "about": "(Analytical biochemistry, 2013)",
  "molecular_target": "T1, LCAT (Homo sapiens, UniProt P04180)",
  "T1 sequence (P04180 25-440)": "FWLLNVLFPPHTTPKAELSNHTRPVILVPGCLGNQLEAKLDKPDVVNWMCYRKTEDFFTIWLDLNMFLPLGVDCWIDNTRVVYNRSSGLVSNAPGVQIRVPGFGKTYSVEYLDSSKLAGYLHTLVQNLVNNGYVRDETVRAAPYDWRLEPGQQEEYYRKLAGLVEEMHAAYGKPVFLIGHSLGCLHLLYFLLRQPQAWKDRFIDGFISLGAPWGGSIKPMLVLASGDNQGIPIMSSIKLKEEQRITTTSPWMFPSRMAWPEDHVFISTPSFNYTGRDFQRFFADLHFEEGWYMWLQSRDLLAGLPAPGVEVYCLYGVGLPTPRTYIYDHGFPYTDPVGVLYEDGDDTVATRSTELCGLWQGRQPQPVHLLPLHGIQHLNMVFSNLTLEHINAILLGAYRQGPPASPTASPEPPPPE",
  "assay": "Assay of LCAT activity in plasma with HDL-mimetic substrate",
  "assay_type": "biochemical",
  "details": "rhLCAT in buffer; 2 μL with 100 μL HMS (100 μM DHE), 2 hours",
  "data": [
    {"substance": "rhLCAT: Recombinant human LCAT purified from the medium of a stably transfected HEK293F cell clone", "values": [
      {"measurement": "Slope of activity versus rhLCAT concentration", "result": 5, "unit": "nmol/µg/h"}
    ]}
  ]
}
